Measured values published in patent US20240368242A1.

Target: recombinant murine CD40 protein (murine) (UniProt P27512)
Assay: SPR, binding to mCD40

Chain of recombinant murine CD40 protein (murine) (P27512 24-193 limits assumed): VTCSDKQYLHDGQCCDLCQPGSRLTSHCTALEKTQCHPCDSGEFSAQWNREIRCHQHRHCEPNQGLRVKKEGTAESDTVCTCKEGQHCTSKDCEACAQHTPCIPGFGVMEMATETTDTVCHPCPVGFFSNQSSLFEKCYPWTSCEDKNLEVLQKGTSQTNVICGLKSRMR

Kd: 3.23 nM
koff: 9.81e-05 s⁻¹
kon: 30400 M⁻¹ s⁻¹
B1: mCD40L-Fc (Fc fusion, from a related filing)
chain: MQRGDEDPQIAAHVVSEANSNAASVLQWAKKGYYTMKSNLVMLENGKQLTVKREGLYYVYTQVTFCSNREPSSQRPFIVGLWLKPSSGSERILLKAANTHSSSQLCEQQSVHLGGVFELQAGASVFVNVTEASQVIHRVGFSSFGLLKL
modifications: left off: a dimerising Fc or GST
